Measured values taken from article PMC6457909 (Science (New York, N.Y.), 2019).

Molecular target: H5N1 A/Vietnam/1203/2004 hemagglutinin, trypsin-cleaved (HA1/HA2), as crystallised with JNJ4796 (influenza A virus H5N1 A/Vietnam/1203/2004) (UniProt Q5EP31)
Assay: crystal structure

With “H5N1 A/Vietnam/1203/2004 hemagglutinin, trypsin-cleaved (HA1/HA2), as crystallised with JNJ4796 (from UniProt Q5EP31 1-568; Q5EP31 1-568) (natural protein)” the stoichiometry N was 3.
